Measured values reported in patent publication US20120172293A1 (Takeda / Millennium, published 2012).
Non-standard residues stand in square brackets, D forms with d. *: point of attachment. X3 = ((1S)-1-Carboxy-2-hydroxyethyl)carbamoyl, O=C(O)[C@H](CO)NC(=O)*; X2 = (tetrahydro-2H-pyran-4-ylmethyl)carbamoyl, O=C(NCC1CCOCC1)*; X8 = (2-Hydroxy-1-(hydroxymethyl)ethyl)carbamoyl, O=C(NC(CO)CO)*; (2-carboxyethyl)carbamoyl = O=C(O)CCNC(=O)*; Tetrahydropyran4carbonyl = O=C(C1CCOCC1)*; 4Pal = N[C@@H](Cc1ccncc1)C(=O)O; Cha = N[C@@H](CC1CCCCC1)C(=O)O; Iva = CC[C@](C)(N)C(=O)O; Aib = CC(C)(N)C(=O)O

B1: Carbamoylmethylcarbamoyl-[D-Pro24, Iva25, Pya(4)26, Cha27,36, Aib28,31, Lys30]-PYY(23-36) (peptide)
peptide: Carbamoylmethylcarbamoyl-S[dP][Iva][4Pal][Cha][Aib]NK[Aib]TRQR[Cha]-NH2
B2: [(1S)-1-Carboxy-2-hydroxyethyl]carbamoyl-[D-Pro24, Iva25, Pya(4)26, Cha27,36, Aib28,31, Lys30]-PYY(23-36) (peptide)
peptide: X3-S[dP][Iva][4Pal][Cha][Aib]NK[Aib]TRQR[Cha]-NH2
SMILES: CC[C@](C)(NC(=O)[C@H]1CCCN1C(=O)[C@H](CO)NC(=O)N[C@@H](CO)C(=O)O)C(=O)N[C@@H](Cc1ccncc1)C(=O)N[C@@H](CC1CCCCC1)C(=O)NC(C)(C)C(=O)N[C@@H](CC(N)=O)C(=O)N[C@@H](CCCCN)C(=O)NC(C)(C)C(=O)N[C@H](C(=O)N[C@@H](CCCNC(=N)N)C(=O)N[C@@H](CCC(N)=O)C(=O)N[C@@H](CCCNC(=N)N)C(=O)N[C@@H](CC1CCCCC1)C(N)=O)[C@@H](C)O
B3: [2-Hydroxy-1-(hydroxymethyl)ethyl]carbamoyl-[D-Pro24, Iva25, Pya(4)26, Cha27,36, Aib28,31, Lys30]-PYY(23-36) (peptide)
peptide: X8-S[dP][Iva][4Pal][Cha][Aib]NK[Aib]TRQR[Cha]-NH2
SMILES: CC[C@](C)(NC(=O)[C@H]1CCCN1C(=O)[C@H](CO)NC(=O)NC(CO)CO)C(=O)N[C@@H](Cc1ccncc1)C(=O)N[C@@H](CC1CCCCC1)C(=O)NC(C)(C)C(=O)N[C@@H](CC(N)=O)C(=O)N[C@@H](CCCCN)C(=O)NC(C)(C)C(=O)N[C@H](C(=O)N[C@@H](CCCNC(=N)N)C(=O)N[C@@H](CCC(N)=O)C(=O)N[C@@H](CCCNC(=N)N)C(=O)N[C@@H](CC1CCCCC1)C(N)=O)[C@@H](C)O
B4: (Tetrahydro-2H-pyran-4-ylmethyl)carbamoyl-[D-Pro24, Iva25, Pya(4)26, Cha27,36, Aib28,31, Lys30]-PYY(23-36) (peptide)
peptide: X2-S[dP][Iva][4Pal][Cha][Aib]NK[Aib]TRQR[Cha]-NH2
SMILES: CC[C@](C)(NC(=O)[C@H]1CCCN1C(=O)[C@H](CO)NC(=O)NCC1CCOCC1)C(=O)N[C@@H](Cc1ccncc1)C(=O)N[C@@H](CC1CCCCC1)C(=O)NC(C)(C)C(=O)N[C@@H](CC(N)=O)C(=O)N[C@@H](CCCCN)C(=O)NC(C)(C)C(=O)N[C@H](C(=O)N[C@@H](CCCNC(=N)N)C(=O)N[C@@H](CCC(N)=O)C(=O)N[C@@H](CCCNC(=N)N)C(=O)N[C@@H](CC1CCCCC1)C(N)=O)[C@@H](C)O
B5: (2-Carboxyethyl)carbamoyl-[D-Pro24, Iva25, Pya(4)26, Cha27,36, Aib28,31, Lys30]-PYY(23-36) (peptide)
peptide: {(2-carboxyethyl)carbamoyl}-S[dP][Iva][4Pal][Cha][Aib]NK[Aib]TRQR[Cha]-NH2
SMILES: CC[C@](C)(NC(=O)[C@H]1CCCN1C(=O)[C@H](CO)NC(=O)NCCC(=O)O)C(=O)N[C@@H](Cc1ccncc1)C(=O)N[C@@H](CC1CCCCC1)C(=O)NC(C)(C)C(=O)N[C@@H](CC(N)=O)C(=O)N[C@@H](CCCCN)C(=O)NC(C)(C)C(=O)N[C@H](C(=O)N[C@@H](CCCNC(=N)N)C(=O)N[C@@H](CCC(N)=O)C(=O)N[C@@H](CCCNC(=N)N)C(=O)N[C@@H](CC1CCCCC1)C(N)=O)[C@@H](C)O
B6: (Tetrahydro-2H-pyran-4-yl)carbonyl-[D-Pro24, Iva25, Pya(4)26, Cha27,36, Aib28,31, Lys30]-PYY(23-36) (peptide)
peptide: Tetrahydropyran4carbonyl-S[dP][Iva][4Pal][Cha][Aib]NK[Aib]TRQR[Cha]-NH2
SMILES: CC[C@](C)(NC(=O)[C@H]1CCCN1C(=O)[C@H](CO)NC(=O)C1CCOCC1)C(=O)N[C@@H](Cc1ccncc1)C(=O)N[C@@H](CC1CCCCC1)C(=O)NC(C)(C)C(=O)N[C@@H](CC(N)=O)C(=O)N[C@@H](CCCCN)C(=O)NC(C)(C)C(=O)N[C@H](C(=O)N[C@@H](CCCNC(=N)N)C(=O)N[C@@H](CCC(N)=O)C(=O)N[C@@H](CCCNC(=N)N)C(=O)N[C@@H](CC1CCCCC1)C(N)=O)[C@@H](C)O

target: human Y2 receptor (human) (UniProt P49146); test: RBA: displacement of [125I]-PYY from hY2R/CHO membranes
Sequence (P49146 whole entry): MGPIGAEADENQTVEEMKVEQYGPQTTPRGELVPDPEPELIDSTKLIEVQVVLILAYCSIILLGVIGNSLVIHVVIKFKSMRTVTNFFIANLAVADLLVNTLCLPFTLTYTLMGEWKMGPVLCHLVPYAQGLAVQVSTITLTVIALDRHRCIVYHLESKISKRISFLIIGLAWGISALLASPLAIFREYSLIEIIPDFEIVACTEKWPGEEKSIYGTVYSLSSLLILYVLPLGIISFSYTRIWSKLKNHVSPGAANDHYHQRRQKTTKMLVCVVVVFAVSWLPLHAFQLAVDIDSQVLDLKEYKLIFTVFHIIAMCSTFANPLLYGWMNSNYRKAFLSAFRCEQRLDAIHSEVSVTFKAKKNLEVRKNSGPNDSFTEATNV

Row | Binder | IC50 Ratio (IC50 compound/IC50 PYY(3-36))
1 | B1 | 1.7
2 | B2 | 3.5
3 | B3 | 1.76
4 | B4 | 1.7
5 | B5 | 3.2
6 | B6 | 3.3

target: human Y2 receptor (human) (UniProt P49146); test: cell-based or functional assay

Row | Binder | GBA EC50 Ratio ([35S]GTPγS binding) (EC50 compound/EC50 PYY(3-36))
7 | B1 | 1.7
8 | B2 | 3
9 | B3 | 2
10 | B4 | 1.9
11 | B5 | 2.4
12 | B6 | 1.9
